Results: patent publication US11994512B2, “Single-cell genomic methods to generate ex vivo cell systems that recapitulate in vivo biology with improved fidelity” (Massachusetts Institute of Technology, priority 2018, dated 2024)

System: intracellular proteome of ENR+CD and ENR organoids
Test: LC-MS/MS TMT proteomics of ENR+CD versus ENR organoids
Format: cell-based, C57BL/6 mice
Conditions: for Average logFC: ENR+CD versus ENR organoids, sample pairs in aggregate (n=4, 2 technical replicates from two biological donors); for M1-1 Log2 Median Normalized / M1-2 Log2 Median Normalized / M2-1 Log2 Median Normalized / M2-2 Log2 Median Normalized: protein abundance ratio ENR+CD versus ENR organoids, LC-MS/MS TMT proteomics; for M1-1 Log2 Median Normalized: sample pair M1-1; for M1-2 Log2 Median Normalized: sample pair M1-2; for M2-1 Log2 Median Normalized: sample pair M2-1; for M2-2 Log2 Median Normalized: sample pair M2-2; for change: up = enriched in ENR+CD, down = enriched in ENR, FDR<0.05 and log fold change cut-off

Molecule | Average logFC | M1-1 Log2 Median Normalized | M1-2 Log2 Median Normalized | M2-1 Log2 Median Normalized | M2-2 Log2 Median Normalized | change
Q91WU0 (protein, UniProt Q91WU0 1-561, looked up, full-length) MFLSTLFLVSLATCVICGNPSSPPVVDTAHGKVLGKHVNVEGFSQPVAVFLGIPFAKPPLGSLRFAPPQPAEPWSSVKNATTYPPMCSQDAARGQAVNDLITNRKEKIHLEFSEDCLYLNIYTPADFSKNSRLPVMVWIHGGGLKLGGASSFDGRALSAYENVVVVAIQYRLSIWGFFSTGDEHSRGNWGHLDQVAALHWVQDNIANFGGDPGSVTIFGESAGGYSVSILILSPLSKNLFHRAISESGVAFIPGMFTKDVRPITEQIAVTAGCKTTTSAVIVHCMRQKTEEELLEIMHKLNLYKLSLQGDTKNSDQFVTSVLDGVVLPKDPKEILAEKNFNTVPYIVGINKQECGWLLPTMTGFLPADVKLDKKKAIALLEQFASMTGIPEDIIPVAVEKYTKGSDDPDQIREGVLDAMGDVAFGVPSVIVSRGHRDTGAPTYMYEYQYYPSFSSPQRPKNVVGDHADDVYSVFGAPILREGASEEEINLSKMVMKFWANFARNGNPNGKGLPHWPKYDQKEGYLHIGGTTQQAQRLKEEEVTFWTQSLAKKQPQPYHNEL | −1.598 | −1.5 | −1.991 | −2.4445 | −0.456 | down
Q8WUR0 (protein, UniProt Q8WUR0 1-141, looked up, full-length) MPIMVDDIMRLLCSISQERKMKAAVKHSGKGAMVAGAMAFVGGLVGGPPGIAVGGTVGGLLGAWMTSGQFKPVPQILMELPPAEQRKLVNEAMAIIGNLDWTDAVQLTALVMSNQAMQQRLLAMLTTYVTKELQAEIRYED | −1.514 | −0.949 | −1.798 | −1.4995 | −1.811 | down
Q8VI93 (protein, UniProt Q8VI93 1-1138, looked up, full-length) MDLFHTPAGALDKLVAHNLHPAPEFTAAVRGALGSLNITLQQHRARGSQRPRVIRIAKGGAYARGTALRGGTDVELVIFLDCFQSFGDQKTCHSETLGAMRMLLESWGGHPGPGLTFEFSQSKASRILQFRLASADGEHWIDVSLVPAFDVLGQPRSGVKPTPNVYSSLLSSHCQAGEYSACFTEPRKNFVNTRPAKLKNLILLVKHWYHQVQTRAVRATLPPSYALELLTIFAWEQGCGKDSFSLAQGLRTVLALIQHSKYLCIFWTENYGFEDPAVGEFLRRQLKRPRPVILDPADPTWDVGNGTAWRWDVLAQEAESSFSQQCFKQASGVLVQPWEGPGLPRAGILDLGHPIYQGPNQALEDNKGHLAVQSKERSQKPSNSAPGFPEAATKIPAMPNPSANKTRKIRKKAAHPKTVQEAALDSISSHVRITQSTASSHMPPDRSSISTAGSRMSPDLSQIPSKDLDCFIQDHLRPSPQFQQQVKQAIDAILCCLREKSVYKVLRVSKGGSFGRGTDLRGSCDVELVIFYKTLGDFKGQKPHQAEILRDMQAQLRHWCQNPVPGLSLQFIEQKPNALQLQLASTDLSNRVDLSVLPAFDAVGPLKSGTKPQPQVYSSLLSSGCQAGEHAACFAELRRNFINTCPPKLKSLMLLVKHWYRQVVTRYKGGEAAGDAPPPAYALELLTIFAWEQGCGEQKFSLAEGLRTILRLIQQHQSLCIYWTVNYSVQDPAIRAHLLCQLRKARPLVLDPADPTWNVGQGDWKLLAQEAAALGSQVCLQSGDGTLVPPWDVTPALLHQTLAEDLDKFISEFLQPNRHFLTQVKRAVDTICSFLKENCFRNSTIKVLKVVKGGSSAKGTALQGRSDADLVVFLSCFRQFSEQGSHRAEIISEIQAHLEACQQMHSFDVKFEVSKRKNPRVLSFTLTSQTLLDQSVDFDVLPAFDALGQLRSGSRPDPRVYTDLIHSCSNAGEFSTCFTELQRDFITSRPTKLKSLIRLVKYWYQQCNKTIKGKGSLPPQHGLELLTVYAWEQGGQNPQFNMAEGFRTVLELIVQYRQLCVYWTINYSAEDKTIGDFLKMQLRKPRPVILDPADPTGNLGHNARWDLLAKEATVYASALCCVDRDGNPIKPWPVKAAV | 1.461 | 1.378 | 0.979 | 1.6325 | 1.853 | up
